One molecule from patent US12241094B2, “Phenazine degrading agents and related compositions, methods and systems for interfering with viability of bacteria” (priority 2016, dated 2025) can be followed below.

“Also recorded” adds a separate entry of the source.

The test system of assay [1] is P. aeruginosa PA14 biofilms. Description: Biofilm formation, surface coverage (chambered coverglass, DAPI). It is filed as cell-based. The conditions noted are these: for biofilm surface coverage: 5 hours. How it is done: Biofilm experiments. For all experiments involving inactivated PodA, either the E154A mutant or PodA30-162 that was subjected to a 1 hour treatment at 98° C. was used. To test the ability of PodA30-162 to degrade PYO in the presence of DNA, genomic DNA (gDNA) from P. aeruginosa PA14 was used in modified versions of previously described assays (59). For experiments using DNA pellets, 0.5 mg of gDNA was pelleted in the presence of 300 mM sodium acetate, pH 5.2 and 70% ethanol. Pellets were washed with 70% ethanol and dried. 200 μL of 800 μM PYO was added to the gDNA pellet without mixing and left to sit at room temperature for 6 hours to allow for diffusion of PYO into the gDNA pellet. The pellet was washed once with 70% EtOH, and submerged in a solution containing 10 mM Tris, pH 7.0 and 40% isopropanol. The pellet remained blue, consistent with an association of PYO with DNA. PodA30-162 was added to the isopropanol solution to a final concentration of 2 μg mL^−1 and left to sit for 3 hours to allow for the reaction to proceed. Tubes were imaged before and after PodA30-162 treatment. For experiments using solubilized gDNA, a 400 μg mL^−1 solution of gDNA was mixed with PYO and allowed to equilibrate for 6 hours. The PYO gDNA mixture was amended with 1 μg mL^−1 PodA30-162 and loss of PYO was monitored on a BioTek Synergy 4 microplate reader (BioTek) plate reader at 690 nm. Standards were included to quantify PYO loss over time. To assess biofilm formation in the presence of PodA30-162, biofilms were grown in Nunc Lab-Tek chambered coverglass slides (8-well, 0.8 cm^2 area, supplier #155411) using a modified protocol (22). PA14 was inoculated into succinate minimal medium and grown overnight to stationary phase. Cells were resuspended in fresh medium and diluted to a starting OD500 of 0.5 in succinate minimal medium. PodA30-162 (2 μg mL^−1, final concentration) or DNase (20 μg mL^−1) (22) was added and 250 μL was added to each well of the 8-well chambered coverglass. Cultures were grown for 5 hours at 37° C. and 100 rpm (Innova 44 shaking incubator, New Brunswick) in a humidified chamber. After incubation, liquid was removed from each well by drawing with a pipet tip placed in the corner of each well and chambers were washed twice with 400 μL of biofilm wash (Tris buffer, pH 7.6 and 100 mM NaCl) to remove planktonic and loosely bound cells. Attached biomass was stained by adding 450 μL biofilm wash containing 10 μg mL^−1 DAPI (4′,6-diamidino-2-phenylindole) (Santa Cruz Biotechnology). Surface associated biomass was imaged on a Leica TCS SPE confocal microscope with a ACS APO 40×/1.15 oil immersion objective. A 405 nm solid-state laser was used for excitation, and data was collected from 420-500 nm. […]

Assay [2] has as its system Pa PA14 biofilm transcriptome. Description: RNASeq transcriptome of biofilm cultures. The assay is classed as cell-based, P. aeruginosa. Conditions: 5 h. As to the method: Because 1-OH-PHZ induces iron starvation in A. fumigatus (Briard et al. (2015) Scientific Reports. 2015; 5), it was speculated that the abrogation of biofilm development in P. aeruginosa grown in the presence of either PodA or 1-OH-PHZox may be mediated by a response to Fe-limitation. To test this idea, changes to the transcriptome of Pa PA14 by RNASeq were assessed. After 5 h of incubation in the presence of PodA (1 μM), 1-OH-PHZ (200 μM) or PYO (200 μM), RNA was prepared from 1 ml of biofilm cultures (250 μl pooled from 4 static biofilm chambers) for analysis on an Illumina HiSeq 2500 sequencer at the Millard and Muriel Jacobs Genetics and Genomics Laboratory, as previously described (Babin et al. (2016) Proc Natl Acad Sci USA. 113(5):E597-E605; Kreamer et al. (2015) M Bio. 2015; 6(2):e02549. Epub 2015/02/26). This experiment was designed to identify genes that were likely to be specifically affected by PodA's transformation of PYO to 1-OH-PHZ under a condition that inhibited biofilm formation (FIG. 20A). As a reference for genes responsive to iron availability, these transcriptomes were compared to those previously found to respond to Fe(II) shock (Kreamer et al. (2015) M Bio. 2015; 6(2):e02549. Epub 2015/02/26).

B1: PodA30-162: truncated pyocyanin demethylase encoded by MFORT_14352 of Mycobacterium fortuitum lacking N-terminal helix, SEQ ID NO: 2 (protein, listed as Mycobacterium fortuitum)
chain: MDGRGGRSTTEPVTMTLDVKNDQVAKHDFGKPGMDVGDMDIFSDILSVDGKQVGYDGGACFFTNVTPDNPMTYCELTIHLDAGEIFARSLTPHTLAPFTMAITGGTGEYANSKGELTVSGVATPDEKYELKLTKAENLYFQ
On to B1, for which the “biofilm surface coverage” value in assay [1] (PodA30-162 2 μg mL^−1, DNase 20 μg mL^−1, vs. PodA-inactive) was “reduced; also recorded: lower”; in assay [1] (representative images, 82.7 percent in the absence of PodA30-162) it was 43.5%. Moreover, the “phenazines in biofilm supernatants by HPLC” value in assay [1] (after 5 hours of growth) is on record as “conversion of PYO to 1-OH-PHZ”. The “expression of small gene cluster incl. QapR regulon” value in assay [2] is recorded as “upregulated modestly”. In addition, the “log(2) changes relative to untreated control, metal scavenging and starvation response genes (FIG. 21A)” value in assay [2] (PodA 1 μM, 1-OH-PHZ 200 μM, PYO 200 μM) is ~0 log(2).
